Measurements as given in patent US20100317054A1 (VIRGINIA TECH INTELLECTUAL PROPERTIES, published 2010).

B1: human DC-SIGN (receptor, UniProt Q9NNX6 1-404, looked up)
chain: MSDSKEPRLQQLGLLEEEQLRGLGFRQTRGYKSLAGCLGHGPLVLQLLSFTLLAGLLVQVSKVPSSISQEQSRQDAIYQNLTQLKAAVGELSEKSKLQEIYQELTQLKAAVGELPEKSKLQEIYQELTRLKAAVGELPEKSKLQEIYQELTWLKAAVGELPEKSKMQEIYQELTRLKAAVGELPEKSKQQEIYQELTRLKAAVGELPEKSKQQEIYQELTRLKAAVGELPEKSKQQEIYQELTQLKAAVERLCHPCPWEWTFFQGNCYFMSNSQRNWHDSITACKEVGAQLVVIKSAEEQNFLQLQSSRSNRFTWMGLSDLNQEGTWQWVDGSPLLPSFKQYWNRGEPNNVGEEDCAEFSGNGWNDDKCNLAKFWICKKSAASCSRDEEQFLSPAPATPNPPPA
notes: whole, on cells; Positive control cell line; also called hDC-SIGN; CD209
B2: human ICAM-2-Fc chimera (Fc fusion, UniProt P13598 25-223, looked up)
chain: KVFEVHVRPKKLAVEPKGSLEVNCSTTCNQPEVGGLETSLDKILLDEQAQWKHYLVSNISHDTVLQCHFTCSGKQESMNSNVSVYQPPRQVILTLQPTLVAVGKSFTIECRVPTVEPLDSLTLFLFRGNETLHYETFGKAAPAPQEATATFNSTADREDGHRNFSCLAVLDLMSRGGNIFHKHSAPKMLEIYEPVSDSQ
notes: Bought from R&D Systems; soluble immunoadhesin; also called hICAM2-Fc; hICAM-2-Fc; not shown: human IgG Fc (detected with anti-human IgG Fc antibody)

Assays:
[1] = target: T1, recombinant human IgG1 Fc (human, UniProt P01857-1 100-330 = IgG part); test: flow cytometry on 3T3-HDCS cells, FITC anti-human IgG Fc detection
T1 construct: domain: Fc; Negative control for the ICAM-Fc chimeras; also called hFc
Method: (§1) Human ICAM-3 and ICAM-2 binding assay: Adhesion of human ICAM-3 or ICAM-2 to pDC-SIGN proteins was assessed with BHK-PDCS and BHK-21 cells by measuring detectable cells that bound the soluble immunoadhesins through FACS analysis. 3T3-HDCS cells were used as the positive control. Cells (1˜3×10⁵ per sample) were resuspended in 100 μL PBS containing 2% FBS and incubated for 60 min at 4° C. with 1 μg of recombinant human IgG₁ Fc (hFc), human ICAM-3-Fc (hICAM3-Fc) chimera or hICAM2-Fc chimera (R&D Systems, Minneapolis, Minn.) in the presence or absence of mannan (100 μg/mL) or ethylene glycol tetraacetic acid (EGTA, 10 mM). Cells were then washed twice and incubated for another 45 min at 4° C. with 0.5 μg of FITC-labeled anti-human IgG Fc antibody (KPL, Inc., Gaithersburg, Md.) in 100 μL PBS containing 2% FBS. Fluorescence was monitored using FACSAria (BD Biosciences, San Jose, Calif.).

[2] = target: T2, human ICAM-3-Fc chimera (human, UniProt P32942 30-485, limits assumed); test: flow cytometry on 3T3-HDCS cells, 1 ug Fc chimera, FITC anti-human IgG Fc
T2 construct: Bought from R&D Systems; soluble immunoadhesin; also called hICAM3-Fc; hICAM-3-Fc; not shown: human IgG Fc (detected with anti-human IgG Fc antibody)
T2 sequence (looked up): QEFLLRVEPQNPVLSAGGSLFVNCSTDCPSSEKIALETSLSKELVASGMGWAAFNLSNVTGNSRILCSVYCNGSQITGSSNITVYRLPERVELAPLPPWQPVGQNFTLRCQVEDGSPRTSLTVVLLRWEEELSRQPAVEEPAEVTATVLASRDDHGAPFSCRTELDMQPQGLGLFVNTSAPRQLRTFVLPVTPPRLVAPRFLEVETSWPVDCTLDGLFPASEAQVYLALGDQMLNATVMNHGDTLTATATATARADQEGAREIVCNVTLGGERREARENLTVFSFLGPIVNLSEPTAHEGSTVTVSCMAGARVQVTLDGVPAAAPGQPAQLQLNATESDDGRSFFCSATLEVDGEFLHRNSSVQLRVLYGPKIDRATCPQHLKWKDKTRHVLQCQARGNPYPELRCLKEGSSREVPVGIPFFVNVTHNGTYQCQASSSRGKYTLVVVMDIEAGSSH
From the text: (§2) FIGS. 8a to 8e show the binding of human ICAM-3 and ICAM-2 immunoadhesins to BHK cells stably expressing pDC-SIGN. FIG. 8a provides the detection of surface expression of pDC-SIGN protein on stable BHK cell lines. BHK-21, and unsorted or sorted BHK-PDCS cell lines were stained with anti-pDC-SIGN antibody and FITC-labeled goat anti-rabbit IgG, respectively, and analyzed by flow cytometry. Dashed open histograms represented the background staining The expression of pDC-SIGN was indicated by the cross-hatched histograms. Expression of hDC-SIGN on the surface of 3T3-HDCS cell line was also verified by staining with a hDC-SIGN monoclonal antibody (right, bottom panel). FIGS. 8b to 8e illustrate the calcium-dependent binding of human ICAM-3 and ICAM-2 immunoadhesins to BHK-PDCS and 3T3-HDCS cells. Dashed open histograms represent cells staining only with a FITC labeled anti-human IgG Fc antibody. Results are representative of three independent experiments. Data are expressed as histogram analysis of 10,000 cells.
(§3) Human ICAM-3 and ICAM-2 binding assay: Adhesion of human ICAM-3 or ICAM-2 to pDC-SIGN proteins was assessed with BHK-PDCS and BHK-21 cells by measuring detectable cells that bound the soluble immunoadhesins through FACS analysis. 3T3-HDCS cells were used as the positive control. […] Fluorescence was monitored using FACSAria (BD Biosciences, San Jose, Calif.).

[3] = target: B1; test: flow cytometry histograms, FIGS. 8b-8e
From the text: as §2, §3

[4] = target: T1, recombinant human IgG1 Fc; test: flow cytometry on BHK-PDCS cells, FITC anti-human IgG Fc detection
Method: as §1

[5] = target: T2, human ICAM-3-Fc chimera; test: flow cytometry on BHK-PDCS cells, 1 ug Fc chimera, FITC anti-human IgG Fc
From the text: as §2, §3

[6] = target: B2; test: as above
From the text: as §2, §3

Does B1 bind [1]?
Result: no binding (tested: 1 ug in 100 uL)

Does B1 bind [2]?
Result: binds

Does B2 bind [3]?
Result: binds

B3: porcine DC-SIGN (receptor)
chain: MAEICDPKEPEEKTWTGPVLVERDLGLLRRLRNSPGCLTWPLLLLLLFVSLGFFMLLVTTLVQVSRIHQSLQRERETSRRPTAQEKIQSSLDKFLQQMTWMNATLAGLCHPCPWHWEFFQGRCYLFSQTQSDWKSSLSACKDIGAQLVIINSTAEQKFLKSWYVRYNKATWIGLSDDTNEGSWQWVDNSPLQLSFWKEGEPNNHGDEDCAELHNDGWNDSKCTVENAWICEKPSSPCPML
notes: In the Western blot it stood in a cell lysate (band of about 48 kDa, probably glycosylated); also called pDC-SIGN; BHK-PDCS (BHK-21 cells stably expressing it)
What does the source list for B3?
binding result [4]: no binding (tested: 1 ug in 100 uL); binding result [5]: binds; binding result [6]: binds
